One assay deals with T1, GST-Rar1 (wild type) (Arabidopsis thaliana (Mouse-ear cress), UniProt Q9SE33).
T1 chain: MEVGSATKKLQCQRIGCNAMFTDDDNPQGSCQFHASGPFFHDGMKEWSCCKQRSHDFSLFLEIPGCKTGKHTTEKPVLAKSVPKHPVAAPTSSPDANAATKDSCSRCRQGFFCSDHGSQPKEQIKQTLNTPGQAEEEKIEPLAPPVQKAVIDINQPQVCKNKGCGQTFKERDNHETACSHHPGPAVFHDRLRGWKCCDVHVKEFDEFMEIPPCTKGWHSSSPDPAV
In words: GST pull-down; strengthened by Sgt1; ADP enhances the CHORDI-Hsp90 interaction.

Another assay concerns the target Hsp90 ( (Arabidopsis H. vulgare or …, UniProt Q7XJ80)). The assay can be described thus: competition GST pull-down; ATPase stimulation.

Hsp90 (, sequence (Q7XJ80 entry or part of it): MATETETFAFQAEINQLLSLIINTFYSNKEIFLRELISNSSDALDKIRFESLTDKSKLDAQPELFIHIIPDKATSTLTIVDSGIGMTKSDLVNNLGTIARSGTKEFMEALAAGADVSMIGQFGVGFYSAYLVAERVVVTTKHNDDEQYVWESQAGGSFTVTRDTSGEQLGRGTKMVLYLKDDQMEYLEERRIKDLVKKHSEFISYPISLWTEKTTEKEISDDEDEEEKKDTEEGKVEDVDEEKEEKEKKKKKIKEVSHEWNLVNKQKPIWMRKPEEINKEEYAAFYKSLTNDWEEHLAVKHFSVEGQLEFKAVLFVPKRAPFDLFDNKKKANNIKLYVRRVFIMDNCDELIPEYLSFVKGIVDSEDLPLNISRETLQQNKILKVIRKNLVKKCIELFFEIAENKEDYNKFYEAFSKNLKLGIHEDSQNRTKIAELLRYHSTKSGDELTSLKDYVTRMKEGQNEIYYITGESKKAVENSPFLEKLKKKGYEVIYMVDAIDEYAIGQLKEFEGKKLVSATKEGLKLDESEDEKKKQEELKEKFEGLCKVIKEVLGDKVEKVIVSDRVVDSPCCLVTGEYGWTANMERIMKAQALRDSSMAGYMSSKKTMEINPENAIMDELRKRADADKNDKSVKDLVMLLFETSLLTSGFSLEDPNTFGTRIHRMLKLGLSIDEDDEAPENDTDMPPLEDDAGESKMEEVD

B1: Hsp90 (protein)
chain: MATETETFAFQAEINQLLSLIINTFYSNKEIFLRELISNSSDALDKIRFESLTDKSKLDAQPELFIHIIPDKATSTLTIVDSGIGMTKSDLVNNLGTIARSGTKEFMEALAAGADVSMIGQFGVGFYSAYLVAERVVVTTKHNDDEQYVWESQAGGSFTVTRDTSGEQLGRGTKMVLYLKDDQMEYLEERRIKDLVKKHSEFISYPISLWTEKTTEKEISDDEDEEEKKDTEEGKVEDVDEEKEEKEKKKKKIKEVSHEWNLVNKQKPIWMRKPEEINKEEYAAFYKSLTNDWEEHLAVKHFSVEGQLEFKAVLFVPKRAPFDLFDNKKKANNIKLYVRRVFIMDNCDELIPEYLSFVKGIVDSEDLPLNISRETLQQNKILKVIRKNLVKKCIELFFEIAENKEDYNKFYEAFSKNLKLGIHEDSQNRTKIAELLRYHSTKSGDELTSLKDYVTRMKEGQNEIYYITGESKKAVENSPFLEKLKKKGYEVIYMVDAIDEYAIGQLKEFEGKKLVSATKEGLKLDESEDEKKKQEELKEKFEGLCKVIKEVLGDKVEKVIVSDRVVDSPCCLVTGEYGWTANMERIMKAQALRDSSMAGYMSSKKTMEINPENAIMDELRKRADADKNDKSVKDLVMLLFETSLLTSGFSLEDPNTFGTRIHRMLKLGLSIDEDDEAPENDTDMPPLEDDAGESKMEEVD
Take B1: the binding result in the assay with GST-Rar1 (wild type) is given as “binds”.

B2: Rar1 (wild type, not GST-tagged) (protein)
chain: T1 chain
For the molecule B2, the binding result in the assay with Hsp90 is given as “binds”.

Source of the values: publication PMC2935968 (2010).
